This is an account of results in the DeepSol protein solubility set.

A short description of this data set: soluble on expression in E. coli; label from the status in PepcDB or PDB records.
Turning to “AIAGCLFSVPEGGYLEVNEERSAGAYDSLSTASGIDDLHDERQPKAAYSMEDSSADLVAEDGAAVHQEVLNAHDDAWCRFDATSDATNEGAAAGGIGAPPSPLDLSLDSVVQQAYQDRVLVVFSGKAFGIALQLQMHWAALGASSAAPECVMDACVPESLLRAVHACLRAHMHACERIANRWNPDSELSAACSSAHPKKAVEVGTILYALLAEAHRLHRVTGGRFDPTCGALWRGFRATLRSSALQRPPQGRAFST”, the “soluble on expression in E. coli” value is recorded as “soluble”.

With “WLLAELTYRCPLQCPYCSNPLDFARQDKELTTEQWIEVFRQARAMGSVQLGFSGGEPLTRKDLPELIRAARDLGFYTNLITSGIGLTESKLDAFSEAGLDHIQISFQASDEVLNAALAGNKKAFQQKLTMAKAVKARDYPMVLNFVLHRHNIDQLDKIIELCIELEADDVELATCQFYGWAFLNREGLLPTREQIARAEQVVADYRQKMAASGNLTNLLFVTPDYYEERPKGCMGGWGSIFLSVTPEGTALPCH”, the “soluble on expression in E. coli” value is given as “not soluble”.

As for “MIPSRSARIIAKLQRLHSTTSAASVSSIDVKEVEKFGDLSAEWADELGPFHALHSLNRIRVPWIVDNVRKSDQKAPPRLVDVGSGGGLLSIPLARSGFDVTGIDATKQAVEAANQSLTAKPLQIAGISKRLRFEHTSVEDFCQKPHNKSAYDAVVASEIVEHVADLPGFIGCLAELARPGAPLFITTINRTWLSKLAAIWLAENVLKIVPPGVHDWEKFITPAELTSHLEKAGCRVTAVHGLMFHPVGNHWTWIESTQCNYGILAVKN”, the “soluble on expression in E. coli” value was “not soluble”.

Consider “IRQTYEQSCGASSLATLLNILDDQKKFDELELLKIMSGQELYTDMVSFADLNDAVKKLGFQSNSYQINRENLDKLVNIPMLVKIEDDPRFPHFVIIINHKGNYLQVLDPSHGEYISSKSQFFSIWDRYNKGGYALIVAP”, for which the “soluble on expression in E. coli” value was “not soluble”.

As to “QQIGLKTNLLYWGTTTPNAGLEFRMGKKWTLDVSGGYNPFTFSHHRKLKHWLVAPELRYWTCEAFSGHFFGLHGIGGEYNVNDIDIPIGRLKKLNNYRYE”, the “soluble on expression in E. coli” value is on record as “not soluble”.

Turning to “MIILYDFLQESSVMPRSKNDSKLKKKSALQSKFKEQQLNHGSKEHKSKFKFSQRKAKKKGPGMTHLPGNIYTLFTPVNGPKSKDEWIDTSKIMLDLHIDNMSSSDYIPSAIDRTDLVMVQSVHLLRKTGGRGLFAREDIPKGTCIGIYTGEVYSEQEFEQYLKEHVGSDKSYAMYVGGRVIDAARKGNLTRYINFSDSQDNAEFVETTLNRKKVAKVITTKNIKAGQQLLINYNTYEEQASRYYYFLNPGDGWLSAQEFYQTYQSQYRLEQMPYNLEGFDLKAGDRVLMTQIGRIILANYSLAKEQELNASDIDLPFLKVGSDEKILDFDEADTFTPLMAACYLGQVENVKWLIEHGANIDQQQSHSGHCPLSLTLKGYSLAKDTQKYIDIIQLLIKNQVNLLVHDRSDKTFLHNAALVLNNLDFQSVVKFLIGQNPIDINEYFTYIDENDFDIVMHCYNNKLFDKALVLLAFYPDYFKRNYMSDNEGHNQFNINAFRKAIKDFNSNERSILLMQLRESGLHLPEDLLEQLGIMDSSITLESKFF”, the “soluble on expression in E. coli” value is given as “not soluble”.

With “MAIIYAVRERTQSKTAMRKVMDYVVQDKKTMYENENGQRCKLVSGQNCCGDTAFKEFMTTKRQYQKEKGVYFYQYIQSFKPGIHATPQEIHQMGVELAKYFKGYEVQIATHIDRDHWHNHLIVNSVSCETGLKLQFNEKNLEQLRTLSDEICAVHGLDTLKPYQKPKQKPMGAGEYRAAVRGGSYKFKLMNAIDQAMTQSRTREEFIVRMEQMGYQVKWNPHHKYITYTTPEGQRCRDNKLHETKYLKTEMEGYFSAKLRRIEAAQQAGYTGGHPTGTTPADRSSALSAAGQRNTHRPMEHDAGEPDRSHTAVAGIDGIHIHPANRRRRKQYDEELLPERLRQADGSPVEYHTERASADYGEYDFEYGEDDGYDWMEADEYTGALGRKAPAPGHVAHKNESQMGRHRGIDFDDIVALAKAVDDLVNPYNPEEEREKKKKYVPKSDHKKQKKKQHHNHDYELSL”, the “soluble on expression in E. coli” value was “soluble”.

As for “MGSDKIHHHHHHMNEAAKQLYITQPSLSNAVRNLETEMGIQIFIRNPKGITLTKDGMEFLSYARQILEQTALLEERYKGDNTSRELFSVSSQHYAFVVNAFVALFNGTDMTQYELFLRETRTWEIIDDVKNFRSEIGVLFLNSYNRDVLTKLFDDNSLIATTLFTTTPHIFVSKSNPLANRKKLNMKDLEDYPYLSYDQGLHNSFYFSEEMMSQIPHPKSIVVSDRATLFNLMIGLDGYTVATGILNSKLNGDEIVAIPLDVDDVIDIVYIRHDKANLSKMGQKFIDYLLEEVSFNHKNKQS”, the “soluble on expression in E. coli” value is given as “not soluble”.

In the case of “MQAGPALMSEVASRELRNDTAGVLRRVRAGEDVTITVSGRPVAVLTPVRPRRRRWLSKTEFLSRLRGAQADPGLRNDLAVLAGDTTEDLGPIR”, the “soluble on expression in E. coli” value is “soluble”.

As to “ILRTKAQFVAMNEASLMQINHEWLQGTQSKQVTSQGETWQIDKRAESTISPNVQRIEIQVSLFDTQQNKVEAGITNLVFFNYPQKENAS”, the “soluble on expression in E. coli” value is reported as “not soluble”.

For the sequence “NLNMAVSVTPIRDTKWLTLEVCREFQRGTCSRPDTECKFAHPSKSCQVENGRVIACFDSLKGRCSRENCKYLHPPPHLKTQLEINGRNNLIQQKNMAMLAQQMQLANAMMPGAPLQPVPMFSVAPSLATNASAAAFNPYLGPVSPSLVPAEILPTAPMLVTGNPGVPVPAAAAAAAQKLMRTDRLEVCREYQRGNCNRGENDCRFAHPADSTMIDTNDNTVTVCMDYIKGRCSREKCKYFHPPAHLQAKIKAAQYQVNQAAAAQAAATAAAMGIPQAVLPPLPKRPALEKTNGATAVFNTGIFQYQQALANMQLQQHTAFLPPVPMVHGATPATVSAATTSATSVPFAATATANQIPIISAEHLTSHKYVTQM”, the “soluble on expression in E. coli” value is listed as “soluble”.

For “MGSDKIHHHHHHMGKYQDSKKVVRNYFEALENATGDEVENVLKQHMKSDYNWKGVYPFREQEGTENVADVFWKPLKKSLSNMQRRQDIFIAGTNEIDNSEWVMSMGHFMGLFDNDWLGIKHTRKMISLRYAEFNCVQDGKIAKTGLFVDIIGFMIQAGVNPLPPQTGSYFVYPGPIDHNGLLFEDADEVEGVKTLALVNKMVDDLSELNESGAMGCPPEILEKSWAKDMIWYGPGGIGASYTIPRYQEQHQLPFRNNLKGKTFNGHVCRFAEGNFACFFGWPNLTNVPCGGFLGLPGGEVKADMQVVDVYYRKGDKLQENWVLIDIPYWLKQQGLDILERTKSIFNA”, the “soluble on expression in E. coli” value was “not soluble”.

Take “MSPMNRQRKNKSNVLNEKDERPGCIIKEKSSVRSMAKTQPTSGRTISLSEINKPIALSKKNTEIKAAVEIQNRLTKKMAKNSERRKKMAHGPEMTAQNRTQERIDFVEFLDRHYQVMQAGVSTVKVHKMHYTKEEFENVIYEAQTIFSSEKALVDIDPPCVVVGNLHGQFNDLINMFILLGRPPETVYVFTECVTSIPKCGEEIWALFQRCFNNLPISALIATKILCMHGGLSPALTCLDELRNHPKPIRNPFRGIVNDMLWADPDPSVFEWKTSSRGSGFTFGTNVIDDVCKRLGVELIIRAHQMCFDGYWVLSGRKLITIFSAPMYCNFYKNTGCVLKVDETLGIQTVAFVPESENIEKIIEEMNRVWDISIDCIE”: the “soluble on expression in E. coli” value is on record as “not soluble”.

As for “MGSDKIHHHHHHMKFVQKIYYFLFKLVGFLPRRKELVMFESFSGKQYSCNPRAIFEYMEEHNPEYELLWSVNPKYVDLFEAHGVPYVKRFSVNWLFKMGLAKFWISNSRLPLELPKPKKTIYVQTWHGTPLKKLGVDIDEVHMPGQTTEQYKADFVKEAQKWDYLISPNAYSSTIFRRAFGFTGEMIESGYPRNDILFSADKELKIANIKMALNIPEDKKVILYAPTWRDNDFYEIGKYKFDLKIDIAKMQEKFGDEVVLLVRMHYLVAEHFDFTQYGDFVRDASKHEDIRDLYLVSDLLITDYSSVFFDYANLKRPMLFYTYDLAEYRDTLRGFYFDFEQNAPGPLVEMNDALMAEIEIMLENPPQIAESFLEQFCTWEDGHAAEKTVKKVFAEK”, the “soluble on expression in E. coli” value was “not soluble”.

With “SADAFSLQRVLETFRSSLSENKEVYIKYYIAGWQELVSFMNSLGNVFSFISKDVVSKIQILENFLSGENGSNYVTIQSMVKYELENDLVDLTKRGSHPESGCRTLLRLHRALRWLELFLERLRTSTEDSKTSVMCSDAYNESLANHHPWLIRKAVGVAFCALPGRETFFDVMNAGDHTQVVALLGESLPLIAEVYQITEDLYAKNNLLELP”, the “soluble on expression in E. coli” value is listed as “soluble”.

Take “MGSDKIHHHHHHMVATPNSSYISPEDYLKGEETSPIKHEYRQGQVYAMAGASNAHVIISLNIASMLRNHLRGSGCQAYISDTKVHIESINVYYYPDVTVSCDQRDRAFNNFLRYPCLIVEVLSPTTEAFDRGDKFADYRQMESLQEYVLISQTRLNVECFRRNPESQWVLYPYGKEDIIHLASVDFRCAVADFYEDVTFESL”: the “soluble on expression in E. coli” value was “not soluble”.

In the case of “TKDFEWKTTVTASHNANKLLSLSNDLYETSNQIDHAYLGEPINLSTQRMEVGRSMGQFYGMKSVGVSENGLWMVENTKTGEIEEFTDNMLSNDDYRQYLGNALPKLYLGWNNSFRYKNFDLSFQMTGQFGFKILNEPRAYYENNSIAYNRLKSVQKAPYGGQYTLSTAQKQTFVSYYLEDGDFLKMTNITLGYNIPLKSSKFVKNIRAYVSADNLFCITGYDGLDPEMSNGDIWSLGIDWRDKYPSTRSFTFGLNVSF”, the “soluble on expression in E. coli” value is given as “not soluble”.

In the case of “MERSWGMGHFPHMQKKTLDAFVRGLQIVMEAEGIKMKPLSVAAGMGESGVRDLIRNESSPKVANAYALARELGRTVDEIIQIGMTGDLNARPAHAPIAVAGCVGAGARVDLLDAYEKGDGMYHVARPPQLKPHGIVAVEVKGESMMPLYRPGSVLFYTRAAAEGVPVEALNTPCVCEDADGRAWLKVVKVGSQEGTFSLLSLNPDADNMHGVRLKWAAPVLLTLSPDYVERVYV”, the “soluble on expression in E. coli” value is “not soluble”.

On to “MIVMATCLLPDETDDACARNPWISHELVTSTVGPGDGLDLRAACSTGTLISGGCSADTFPDDELSLMRSGFAPDNRDEWLCSFKSLHESVTYEVATMAFCLNEDPLPAECGCCPPLAEQLTIRQTNEPLRNGPNRLEASCEDDEFLLIGNCMLDVPAVSEVESVTMFRYGYPPTDEHPDGDYSKWGCSWHNPTGYTPRALANAVCLPAQ”, for which the “soluble on expression in E. coli” value is recorded as “not soluble”.

Regarding “MSQTPPPKDGKNPEAMEVEDAIDEEILKMSTEDLKSRTHLLDNEIRIMRSEVQRINHSATTLKERIKENTERIKVNKTLPYLVSNVVELLDLEDNTEEEGANVDLDAQKTKCAVIKTSTRATYFLPVVGLVDPDELKPGDLVGVNKDSYLILEKLPAEYDSRVKAMEVDERPTEQYSDIGGCDKQIQELIEAVVLPMTHKDRFVNLGIHPPKGVLMYGPPGTGKTMMARAVAAQTKSTFLKLAGPQLVQMFIGDGAKLVRDAFALAKEKAPAIIFIDELDAIGTKRFDSEKAGDREVQRTMLELLNQLDGFQPNDDIKVIAATNRIDVLDPALLRSGRLDRKIELPHPNEDARARIMQIHSRKMNVNKDVNFEELARCTDDFNGAQCKAVCVEAGMIALRRDATEILHEDFMDAILEVQAKKKASLNYYA”, the “soluble on expression in E. coli” value is on record as “not soluble”.

Regarding “MKYRIVRIELKSDDEVTLYLKSASRKPGVMAKADFSDPVKVIEFGLQMGMDLARRIEELMQFDAFLTVPYDYYSMNELKVGDVVEVEVRLAER”, the “soluble on expression in E. coli” value is “not soluble”.

With “MGSDKIHHHHHHMGLMDFRPYFRVTVDGKDISGVLAPRLVSLRVTDGAGVQSDTVEIRLSDTNLFQRISEPRAGAEIEVWLGFPLSLSYMGLFVADTIETGGPPDTVTITGTASVNGETTSGKTALTDQKKRSWPEGTTIGAMVEKIASEHGLIAMVSESLRAEALPHIDQIDESDINLLSRIARDFDAIAKPGNGRLIMTRRGESLTASGQPLPVVRVDKSSVTEWRYRNSLRERVGRVIATTQDLEAGQPVEVEAGQGEPALRLRRRFPDKVTARKTAESELKRLGRAGRSLSITMPGNSDIVAEARLSASGFRSYIDGEWLVSRATHILDSGGYRTAITAEPVE”, the “soluble on expression in E. coli” value is “not soluble”.
